“And” between values parts separate entries of the source, which are not always exact repeats. Equal values may be shown once.

First the molecules themselves.
B1: Histone deacetylase 8, Q9BY41 (parent)
chain: MEEPEEPADSGQSLVPVYIYSPEYVSMCDSLAKIPKRASMVHSLIEAYALHKQMRIVKPKVASMEEMATFHTDAYLQHLQKVSQEGDDDHPDSIEYGLGYDCPATEGIFDYAAAIGGATITAAQCLIDGMCKVAINWSGGWHHAKKDEASGFCYLNDAVLGILRLRRKFERILYVDLDLHHGDGVEDAFSFTSKVMTVSLHKFSPGFFPGTGDVSDVGLGKGRYYSVNVPIQDGIQDEKYYQICESVLKEVYQAFNPKAVVLQLGADTIAGDPMCSFNMTPVGIGKCLKYILQWQLATLILGGGGYNLANTARCWTYLTGVILGKTLSSEIPDHEFFTAYGPDYVLEITPSCRPDRNEPHRIQQILNYIKGNLKHVV

The series covers variants of B1. Conditions: Homo sapiens; pH 7.5; Thermal; fluorescence; Hepes 25 mM; KCl 150 mM; structure 2V5W; whole UniProt chain shown.
As usually defined, the Tm is the temperature at which the thermal transition is half complete. For the variant A188T, the melting temperature (Tm) was 46.5 °C and 50.6 °C.

Consider C153F, for which the Tm came to 50.6 °C.

The record behind these values is FireProtDB (doi:10.1021/cb5003762).
